Source: article doi:10.1101/2020.08.23.263558 (bioRxiv, 2020)

Target: the molecule itself
Assay: cryo-EM structure

B1: full length human Top2α (1-1531) (enzyme)
chain: MEVSPLQPVNENMQVNKIKKNEDAKKRLSVERIYQKKTQLEHILLRPDTYIGSVELVTQQMWVYDEDVGINYREVTFVPGLYKIFDEILVNAADNKQRDPKMSCIRVTIDPENNLISIWNNGKGIPVVEHKVEKMYVPALIFGQLLTSSNYDDDEKKVTGGRNGYGAKLCNIFSTKFTVETASREYKKMFKQTWMDNMGRAGEMELKPFNGEDYTCITFQPDLSKFKMQSLDKDIVALMVRRAYDIAGSTKDVKVFLNGNKLPVKGFRSYVDMYLKDKLDETGNSLKVIHEQVNHRWEVCLTMSEKGFQQISFVNSIATSKGGRHVDYVADQIVTKLVDVVKKKNKGGVAVKAHQVKNHMWIFVNALIENPTFDSQTKENMTLQPKSFGSTCQLSEKFIKAAIGCGIVESILNWVKFKAQVQLNKKCSAVKHNRIKGIPKLDDANDAGGRNSTECTLILTEGDSAKTLAVSGLGVVGRDKYGVFPLRGKILNVREASHKQIMENAEINNIIKIVGLQYKKNYEDEDSLKTLRYGKIMIMTDQDQDGSHIKGLLINFIHHNWPSLLRHRFLEEFITPIVKVSKNKQEMAFYSLPEFEEWKSSTPNHKKWKVKYYKGLGTSTSKEAKEYFADMKRHRIQFKYSGPEDDAAISLAFSKKQIDDRKEWLTNFMEDRRQRKLLGLPEDYLYGQTTTYLTYNDFINKELILFSNSDNERSIPSMVDGLKPGQRKVLFTCFKRNDKREVKVAQLAGSVAEMSSYHHGEMSLMMTIINLAQNFVGSNNLNLLQPIGQFGTRLHGGKDSASPRYIFTMLSSLARLLFPPKDDHTLKFLYDDNQRVEPEWYIPIIPMVLINGAEGIGTGWSCKIPNFDVREIVNNIRRLMDGEEPLPMLPSYKNFKGTIEELAPNQYVISGEVAILNSTTIEISELPVRTWTQTYKEQVLEPMLNGTEKTPPLITDYREYHTDTTVKFVVKMTEEKLAEAERVGLHKVFKLQTSLTCNSMVLFDHVGCLKKYDTVLDILRDFFELRLKYYGLRKEWLLGMLGAESAKLNNQARFILEKIDGKIIIENKPKKELIKVLIQRGYDSDPVKAWKEAQQKVPDEEENEESDNEKETEKSDSVTDSGPTFNYLLDMPLWYLTKEKKDELCRLRNEKEQELDTLKRKSPSDLWKEDLATFIEELEAVEAKEKQDEQVGLPGKGGKAKGKKTQMAEVLPSPRGQRVIPRITIEMKAEAEKKNKKKIKNENTEGSPQEDGVELEGLKQRLEKKQKREPGTKTKKQTTLAFKPIKKGKKRNPWSDSESDRSSDESNFDVPPRETEPRRAATKTKFTMDLDSDEDFSDFDEKTDDEDFVPSDASPPKTKTSPKLSNKELKPQKSVVSDLEADDVKGSVPLSSSPPATHFPDETEITNPVPKKNVTVKKTAAKSQSSTSTTGAKKRAAPKGTKRDPALNSGVSQKPDPAKTKNRRKRKPSTSDDSDSNFEKIVSKAVTSKKSKGESDDFHMDFDSAVAPRAKSVRAKKPIKYLEESDEDDLF
In the case of B1, the “stoichiometry N” value is reported as 2.
